Data published in the domain aggregation screens of Martell et al. (2025).

test: soluble fraction after stress (log2 fold change); higher = more stays soluble; pooled small domains, quantitative proteomics; settings: stress: 50 degC
Method in brief: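 After stress at 50°C, the amount of each protein still soluble was measured. This was done on pooled custom libraries of small protein domains, using high-throughput quantitative proteomics. The figure given is a base-two log fold change and stands for aggregation propensity, with higher values meaning more protein stays in solution.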

| Sequence | soluble fraction (log2) |
| --- | --- |
| HMDVQTVTVIENVNVRKSASENGQKLGLAYTGEKLELLMKQADGWTRVKYNGETAYVKSDYV | -0.00354 |
| HMIQQFTYAFAKDKGVVVLPGRDVLTLGMRAGADPLVLLEARRALGSSFELEPLDRDTYERTLADVFTADA | -0.695 |
| HMYEIEDIKEKLLDLLANSKTGFSGLEISNRLGINRITVSKYLNIFSAEGLIKQKNIGNVIIWFVEDGIE | -0.203 |
| HMNQGKLIEMLQEMKEIAHSQNNYLTKNEIANYLGDTVLSKEQLQAVYHYLGENHIEVEGYVYIP | 0.035 |
| HMSYFNEYEVGDTIRVVNGPLADQISTITAIDKEKGLVNISTVFFGRENNVQVSINDIEKYN | 0.0466 |
| HMGSQSYVAIVNERFKESDIVELGGSVGSRTGDIITLHFRNSSPNELKNITGIVYLQVANKVTPKL | -0.612 |
| HMQISDEAALLAIVDRVIADNQGPLANYLGGKQSLLGWFVGQVMRATRGQAIPAVVNRLVGERLAAQREE | -0.627 |
| HMETDNEKVRTAFQNGLAAYREQDWDRAEAAFGAVLAEMPEDRPSLVYLERIAHLRKKAPPGAWDGVWI | -0.0616 |
| HMNEISFYPNPAKESLTVKGLSEITSYSISDINGKLIQYGTTFDRINLEKLTKGFYFLTIGNTISKKLIV | -0.39 |
| HMSMDYYNILGVNRNASTGEIKKAYKRASMQHHPDRGGNSDEFIKVQQAYDTLSDNHKRQAYDNP | 0.0774 |
| HMDHKSSYWSVKEANLFPELLKQFGSQWSLISDKLGTKSTTMVRNYYQRNAAQLGWKSVVEEADFKRNA | -0.436 |
| HMNDITVNVEDSKLIVTSNNPEKLPLYIMDIQGHILDKSEITAGTYSFPISDRGTYIVRIGENVYKVI | 0.0386 |
| HMSDNYYSILGIETDATTDMIKRAYRRLSLELHPDRTKDNPILTEKYKKVNEAYGVLNDNDRKHIYDLQNI | -0.216 |
| HMGIKDRIVYIMEKEKLSIPLFAKKIGIGPSTLLHIIRGKNAPSLQVVQAIHKAYPDIDLNWLI | -1.08 |
| HMTGLSFEEKDLLGNALKLLDETERRIVILHATSGLKHREIAKQLDIPLPTVLSKYTRAIKKLKKHME | -0.0942 |
| HMNTLPASVQPKKGRLYAVIQTKENGKSKPVWRSLGLPEGSNKSKVNKAFREVVKQFEEEYAERLAR | 0.0511 |
| HMPSPEVELLEDLLSKTDEAEVEAAFHENQALVNDEFKAMLGSLIQELSKTQEADPEIIARIRFIQKLT | 0.16 |
| HMKKTITISNYINVRDFATMSELPVNSILSVLMKNGIFVSLNEKIDFDTAWLVGSELGLEVKQKQG | -0.214 |
| HMSSKSLAALSPQEYRLLPLVAEGKTNKEIASALALSDKTVKNYLANIFSKLGITRRTQAATLYARAL | -0.167 |
| HMAIGTDPETGISVVADGTDFIWTRSGATSTIFLRLDSENSYILNVKQGDFEVIDYELGEGQENAINIDQS | -0.0311 |
| HMDGYLQLASKKNELITQLKTPPKPKRLFKDFEDRVYLITEYKVFVVSIFQNEFRLRPVNKDDFYRYTT | 0.207 |
| HMNLWIDNTQVINDWTEGASERSGSIYLTAGVKPIKMQYFDSVLNAKAILRWQGPGINKSVVPSSALTPG | -0.855 |
